From patent US20230416362A1 (INDUSTRIAL TECHNOLOGY RESEARCH INSTITUTE, published 2023) come the findings set out here.

Experiment [1] concerns the target T1, human TIGIT expressed on cells (TIGIT/Jurkat cells; MJ[G11] cells; PBMC T cells) (human, UniProt Q495A1 22-244).
T1 construct: The cell line is named under assay; also called human TIGIT-expressing Jurkat cells
T1 sequence: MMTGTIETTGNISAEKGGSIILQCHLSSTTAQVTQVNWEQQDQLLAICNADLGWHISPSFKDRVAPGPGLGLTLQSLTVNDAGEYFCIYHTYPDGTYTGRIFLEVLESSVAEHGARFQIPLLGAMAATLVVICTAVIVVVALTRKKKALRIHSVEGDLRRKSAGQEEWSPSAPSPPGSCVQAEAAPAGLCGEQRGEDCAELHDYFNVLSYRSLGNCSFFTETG
The experiment in a line: flow cytometry competition on TIGIT/Jurkat cells; competitor DyLight 650-CD155-human Fc at 1 µg/ml. From the text:
(§1) Anti-TIGIT antibodies, including hz7D4, and reference antibodies (15A6 and 1D3) were used to compete with CD155 for binding to cells expressing human TIGIT. MJ[G11] (American Type Culture Collection (ATCC), CRL-8294) is a CD3+CD4+T lymphoma cell line carrying human T cell leukemia virus (HTLV-I). MJ[G11] cells were characterized by immunostaining with regulatory T cell phenotypic antibody markers, including CD4, CD25, CD127, and FoxP3, and found to be a regulatory T cell-like cell line (FIG. 9A). Moreover, MJ[G11] cells express human TIGIT constitutively, as shown by immunostaining with PE-conjugated anti-human TIGIT, MBSA43 antibody (FIG. 9B). A sequential 3-fold dilution of anti-TIGIT antibodies was added to 5×10⁵ of human TIGIT-expressing Jurkat cells or 3×10⁵ of MJ[G11] cells in 50 μl FACS buffer (0.2% BSA in DPBS containing 0.09% sodium azide) and incubated on ice for 30 min. Then, 10 μl of DyLight 650-conjugated CD155-human Fc fusion protein were added to the cells, to reach a final concentration of 1 μg/ml for human TIGIT-Jurkat cells and 1.5 μg/ml for MJ[G11] cells, and incubated for 30 min at 4° C. Cells were washed and analyzed by a FACSCalibur cytometer (Becton Dickinson). IC₅₀ values were calculated based on normalized median fluorescence intensity (MFI) values. […]
(Flow cytometry measures light scatter and fluorescence of single cells or particles in a stream.)

Experiment [2] deals with T1, human TIGIT expressed on cells …. The experiment in a line: flow cytometry competition on MJ[G11] cells; competitor DyLight 650-CD155-human Fc at 1.5 µg/ml.
Excerpt: as §1

In experiment [3] the target is T2, recombinant human TIGIT IgV domain (human, UniProt Q495A1 22-141, limits assumed).
T2 construct: Made in NS0 or Expi293F cells, purified on Strep-Tactin XT; Biotinylated for phage panning; also called human TIGIT IgV protein; native (Nat) form human TIGIT protein
T2 chain: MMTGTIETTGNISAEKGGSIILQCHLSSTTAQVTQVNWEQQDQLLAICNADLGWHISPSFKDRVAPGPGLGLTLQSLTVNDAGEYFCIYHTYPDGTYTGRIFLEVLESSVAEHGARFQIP
The experiment in a line: phage display panning on biotinylated human TIGIT IgV domain. How it is done:
(§2) The phages were captured by incubation with 50 μl of M280 streptavidin magnetic beads (Thermo Fisher Scientific) for 15 min. Non-specific phages were eliminated by ten washes with PBS/0.1% Tween-20, followed by 10 washes with PBS for 5 min each. Bound phages were eluted with 0.1 M glycine (pH 2.0), neutralized with 1 M Tris-HCl (pH 8.0) and re-infected into log-phase TG1 cells. In the second panning round, phages (10⁹ cfu) were used against 0.1 nM of the biotinylated cyno TIGIT IgV domain.
(§3) The nucleotide sequences of the phage clones that bind to both human and cyno TIGIT IgV domains were determined. All heavy chain CDR3 (HCDR3) clones contain the wild type HCDR3 amino acid sequence of […] (SEQ ID NO: 3). Two light chain CDR3 (LCDR3) clones screened by the light chain library, designated 1A11 and 1E3, contain LCDR3 amino acid sequences of […] (SEQ ID NO: 23) and […] (SEQ ID NO: 24), respectively.

In a further experiment the target is T3, cyno TIGIT IgV domain (cynomolgus monkey).
T3 construct: Biotinylated for phage panning; also called biotinylated cyno TIGIT IgV domain; cynomolgus monkey TIGIT
T3 sequence (chain, as listed by the source limits assumed): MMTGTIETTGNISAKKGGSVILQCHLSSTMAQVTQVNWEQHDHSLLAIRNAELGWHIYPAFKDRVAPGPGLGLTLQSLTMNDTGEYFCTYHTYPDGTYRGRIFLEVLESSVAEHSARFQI
The experiment in a line: phage display panning on biotinylated cyno TIGIT IgV domain. The method, then: as §2, §3

The target in experiment [4] is T4, TIGIT-biotin (TIGIT:CD155 Homogeneous Assay Kit, #72029) (human, UniProt Q495A1 22-141, limits assumed, biotin (site not stated)).
T4 construct: Kit reagent; also called human TIGIT
T4 chain: T2 chain
As to the kind of experiment: AlphaLISA competition: TIGIT-biotin with antibody, then histidine-tagged CD155 as competitor. How it is done:
To evaluate inhibition of binding of TIGIT to CD155 by anti-TIGIT antibodies, AlphaLISA assays were performed using a TIGIT:CD155 Homogeneous Assay Kit (PBS Biosciences, #72029). Aliquots (6 μl) of solution containing TIGIT-biotin (final concentration 0.2 ng/μl) and 4-fold serial dilution of the test antibodies (final volume 2 μl) were added into a 384-well plate. The plates were covered with a lid and incubated at room temperature for 30 min. Then, 2 μl of histidine-tagged CD155 were added (final concentration 0.05 ng/μl) into each well and incubated at room temperature for 60 min. Finally, aliquots (5 μl) of streptavidin-conjugated donor beads (final concentration 10 μg/ml) and 5 μl of anti-His tag acceptor beads (final concentration 20 μg/ml) were added and the plate was incubated at room temperature for 30 min in the dark. AlphaLISA signals were measured on an EnSpire Alpha 2390 (Perkin-Elmer Life Sciences). 15A6 (U.S. Pat. No. 10,189,902) and MBSA43 (Thermo Fisher Scientific, #16-9500-82) were used as reference antibodies.
These antibodies were selected for further functional studies.
In general terms: In Alpha technology, singlet oxygen from a donor bead excites a nearby acceptor bead.

Experiment [5] concerns the target T5, recombinant mouse TIGIT IgV domain (mouse, UniProt P86176 29-145).
T5 construct: Made in NS0 cells, purified on Strep-Tactin XT; Biotinylated for phage panning; also called biotinylated mouse TIGIT IgV domain
T5 sequence: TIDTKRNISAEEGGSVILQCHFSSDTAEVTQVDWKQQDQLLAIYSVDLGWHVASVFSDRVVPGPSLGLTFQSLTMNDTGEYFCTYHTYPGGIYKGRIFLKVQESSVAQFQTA
As to the kind of experiment: ELISA on coated recombinant TIGIT IgV domain. The method, then: To assess species cross-reactivity of anti-TIGIT antibodies 7D4, 2C9, and 3A9, ELISA binding assays to human, cynomolgus monkey, and mouse TIGIT were performed. 1 μg/ml each of human, cyno (R&D Systems, Inc., #9380-TG), and mouse TIGIT in 50 μl of DPBS were coated on 96-well plates at 4° C. for overnight. After washing the plates with phosphate-buffered saline containing 0.05% of Tween 20 (PBST), a sequential dilution of 7D4, 2C9, and 3A9 antibodies was added separately and the plates were incubated at 37° C. for 1 hour. After washing the plates three times with PBST, the plates were incubated with an anti-mouse Fey polyclonal antibody conjugated with horseradish peroxidase (HRP) at 37° C. for 1 hour. After washing the plates three times with PBST, 100 μl of 3,3′,5,5′-tetra-methylbenzidine (TMB) substrate (Thermo Fisher Scientific, #34018) were added into each well. After 5 to 10 min of color development, 50 μl of stop solution (2 N of HCl) were added into each well and plates were read by spectrophotometer at a wavelength of 450 nm.
On the technique in general: In an ELISA, binding on a coated surface is turned into a signal by an enzyme label.

The target in experiment [6] is T1, human TIGIT expressed on cells …. As to the kind of experiment: flow cytometry on TIGIT/Jurkat cells. The method, then: Sequential dilutions of Protein A column-purified 7D4, 2C9, and 3A9 antibodies were separately incubated with 5×10⁵ of human TIGIT-expressing Jurkat cells (TIGIT/Jurkat) in 50 μl of FACS buffer (0.2% BSA in Dulbecco's phosphate-buffered saline (DPBS) containing 0.09% sodium azide) on ice for 1 hour. After washing, the cells were stained with anti-mouse IgG conjugated with PE dyes and antibody binding strength was analyzed by flow cytometry.

Substitutions are numbered along the chain they refer to.

Broadly, the IC50 is the concentration at which inhibition is half-maximal. A low value points to greater potency in that assay. One may read the EC50 as the midpoint of the concentration-response curve. The term Kd denotes the constant that tells how readily two partners part at equilibrium. A lower Kd goes with a tighter complex.

B1: hz7D4 hIgG1 (antibody, V domains shown)
VH: EVQLVQSGGGLVKPGGSLRLSCAASGYTFTNYWIGWVRQTPGKGLEWVGDIYPGSSFTNSNEKFKGRFTISADKSKNTAYLQMNSLRAEDTAVYYCARLGRGYWYFDVWGQGTLVTVSS
VL: DIVLTQSPATLSASLGERATLSCSASSSVSYIHWYQQKPGQAPKLLIYTTSNLASGVPSRFSGSGSGTDFTLTISSLEAEDFATYYCHQWSRYPTFGGGTKLEIK
notes: Human IgG1 (vector pFUSE-CHIg-hIG1) with human kappa constant region, made in CHO-S cells; also called humanized 7D4; hz7D4 human IgG1
For B1, the values for the IC50 in experiment [1] and in experiment [2] were 0.2 nM and 0.3 nM, respectively.

B2: 1A11 scFv phage clone (scFv, V domains shown)
VH: B1 VH
VL: B1 VL with H88Q, Q89L, W90F, S91R, R92S, Y93G, P94S, T95A
In the case of B2, the binding result (in experiment [3]; with cyno TIGIT IgV domain) was “binds” each time.

B3: 7D4 (antibody, V domains shown)
VH: QVQLKHSGAELVRPGTSVKMSCKASGYTFTNYWIGWAKQRPGHGLEWIGDIYPGSSFTNSNEKFKGKATLTADKSSSTAYMQFSSLTSEDSAIYYCAKLGRGYWYFDVWGTGTSVTVSA
VL: DIVLTQSPAIMSASLGEEITLTCSASSSVSYIHWYQQKSGTSPKLLIYTTSNLASGVPSRFSGSGSGTFYSLTISSVEAEDAADYYCHQWSRYPTFGGGTKLEIK
notes: Mouse monoclonal antibody from hybridoma clone 7D4, Protein A purified; also called anti-TIGIT monoclonal antibody 7D4; parental mouse 7D4 antibody
Take B3: the half-maximal inhibitory concentration (IC50) in experiment [4] was determined as 0.32 nM. The EC50 in experiment [5] amounted to 10.5 nM. Further, in experiment [6], the affinity, expressed as Kd, was 0.27 nM.
